The FLAb antibody collection (doi:10.1101/2023.12.08.570889)

biological target: C5, P01031; assay: Kd (SPR)

| Kd | Binder |
| --- | --- |
| 325 nM | unnamed (protein) chain 1: QVQLVQSGAEVKKPGASVKVSCKASGYIFSNYWIQWVRQAPGQGLEWMGEILPGSGSTEYTENFKDRVTMTRDTSTSTVYMELSSLRSEDTAVYYCARDRFDVASGSSFDFWGQGTLVTVSS chain 2: DIQMTQSPSSLSASVGDRVTITCGASENIYGALNWYQQKPGKAPKLLIYGATNLADGVPSRFSGSGSGTDFTLTISSLQPEDFATYYCQNVLNTPLTFGQGTKVEIK |
| 3980 nM | unnamed (protein) chain 1: QVQLVQSGAEVKKPGASVKVSCKASGYIFSNYWIQWVRQAPGQGLEWMGEILPGSGSTEYTENFKDRVTMTRDTSTSTVYMELSSLRSEDTAVYYCARDRSYGDSSWALDAWGQGTLVTVSS chain 2: DIQMTQSPSSLSASVGDRVTITCGASENIYGALNWYQQKPGKAPKLLIYGATNLADGVPSRFSGSGSGTDFTLTISSLQPEDFATYYCQNVLNTPLTFGQGTKVEIK |
| 111 nM | unnamed (protein) chain 1: QVQLVQSGAEVKKPGASVKVSCKASGYIFSNYWIQWVRQAPGQGLEWMGEILPGSGSTEYTENFKDRVTMTRDTSTSTVYMELSSLRSEDTAVYYCARYYYGDTPTIYFDYWGQGTLVTVSS chain 2: DIQMTQSPSSLSASVGDRVTITCGASENIYGALNWYQQKPGKAPKLLIYGATNLADGVPSRFSGSGSGTDFTLTISSLQPEDFATYYCQNVLNTPLTFGQGTKVEIK |
| 502 nM | unnamed (protein) chain 1: QVQLVQSGAEVKKPGASVKVSCKASGYIFSNYWIQWVRQAPGQGLEWMGEILPGSGSTEYTENFKDRVTMTRDTSTSTVYMELSSLRSEDTAVYYCARYRWGDTPIIYFDYWGQGTLVTVSS chain 2: DIQMTQSPSSLSASVGDRVTITCGASENIYGALNWYQQKPGKAPKLLIYGATNLADGVPSRFSGSGSGTDFTLTISSLQPEDFATYYCQNVLNTPLTFGQGTKVEIK |
| 492 nM | unnamed (protein) chain 1: QVQLVQSGAEVKKPGASVKVSCKASGYIFSNYWIQWVRQAPGQGLEWMGEILPGSGSTEYTENFKDRVTMTRDTSTSTVYMELSSLRSEDTAVYYCARLYYGDTPYIYFDYWGQGTLVTVSS chain 2: DIQMTQSPSSLSASVGDRVTITCGASENIYGALNWYQQKPGKAPKLLIYGATNLADGVPSRFSGSGSGTDFTLTISSLQPEDFATYYCQNVLNTPLTFGQGTKVEIK |
| 280 nM | unnamed (protein) chain 1: QVQLVQSGAEVKKPGASVKVSCKASGYIFSNYWIQWVRQAPGQGLEWMGEILPGSGSTEYTENFKDRVTMTRDTSTSTVYMELSSLRSEDTAVYYCARFRYGDTPIIYFDYWGQGTLVTVSS chain 2: DIQMTQSPSSLSASVGDRVTITCGASENIYGALNWYQQKPGKAPKLLIYGATNLADGVPSRFSGSGSGTDFTLTISSLQPEDFATYYCQNVLNTPLTFGQGTKVEIK |
| 385 nM | unnamed (protein) chain 1: QVQLVQSGAEVKKPGASVKVSCKASGYIFSNYWIQWVRQAPGQGLEWMGEILPGSGSTEYTENFKDRVTMTRDTSTSTVYMELSSLRSEDTAVYYCARYRYGDTPFIYFDYWGQGTLVTVSS chain 2: DIQMTQSPSSLSASVGDRVTITCGASENIYGALNWYQQKPGKAPKLLIYGATNLADGVPSRFSGSGSGTDFTLTISSLQPEDFATYYCQNVLNTPLTFGQGTKVEIK |
| 850 nM | unnamed (protein) chain 1: QVQLVQSGAEVKKPGASVKVSCKASGYIFSNYWIQWVRQAPGQGLEWMGEILPGSGSTEYTENFKDRVTMTRDTSTSTVYMELSSLRSEDTAVYYCARYRWGDTPYIYFDYWGQGTLVTVSS chain 2: DIQMTQSPSSLSASVGDRVTITCGASENIYGALNWYQQKPGKAPKLLIYGATNLADGVPSRFSGSGSGTDFTLTISSLQPEDFATYYCQNVLNTPLTFGQGTKVEIK |
| 469 nM | unnamed (protein) chain 1: QVQLVQSGAEVKKPGASVKVSCKASGYIFSNYWIQWVRQAPGQGLEWMGEILPGSGSTEYTENFKDRVTMTRDTSTSTVYMELSSLRSEDTAVYYCARLRYGDTPTIYFDYWGQGTLVTVSS chain 2: DIQMTQSPSSLSASVGDRVTITCGASENIYGALNWYQQKPGKAPKLLIYGATNLADGVPSRFSGSGSGTDFTLTISSLQPEDFATYYCQNVLNTPLTFGQGTKVEIK |
| 204 nM | unnamed (protein) chain 1: QVQLVQSGAEVKKPGASVKVSCKASGYIFSNYWIQWVRQAPGQGLEWMGEILPGSGSTEYTENFKDRVTMTRDTSTSTVYMELSSLRSEDTAVYYCARYYWGDTPYIYFDYWGQGTLVTVSS chain 2: DIQMTQSPSSLSASVGDRVTITCGASENIYGALNWYQQKPGKAPKLLIYGATNLADGVPSRFSGSGSGTDFTLTISSLQPEDFATYYCQNVLNTPLTFGQGTKVEIK |
| 689 nM | unnamed (protein) chain 1: QVQLVQSGAEVKKPGASVKVSCKASGYIFSNYWIQWVRQAPGQGLEWMGEILPGSGSTEYTENFKDRVTMTRDTSTSTVYMELSSLRSEDTAVYYCARYRYGDTPTIYFDYWGQGTLVTVSS chain 2: DIQMTQSPSSLSASVGDRVTITCGASENIYGALNWYQQKPGKAPKLLIYGATNLADGVPSRFSGSGSGTDFTLTISSLQPEDFATYYCQNVLNTPLTFGQGTKVEIK |
| 162 nM | unnamed (protein) chain 1: QVQLVQSGAEVKKPGASVKVSCKASGYIFSNYWIQWVRQAPGQGLEWMGEILPGSGSTEYTENFKDRVTMTRDTSTSTVYMELSSLRSEDTAVYYCARYYWGDTPIIYFDYWGQGTLVTVSS chain 2: DIQMTQSPSSLSASVGDRVTITCGASENIYGALNWYQQKPGKAPKLLIYGATNLADGVPSRFSGSGSGTDFTLTISSLQPEDFATYYCQNVLNTPLTFGQGTKVEIK |
| 583 nM | unnamed (protein) chain 1: QVQLVQSGAEVKKPGASVKVSCKASGYIFSNYWIQWVRQAPGQGLEWMGEILPGSGSTEYTENFKDRVTMTRDTSTSTVYMELSSLRSEDTAVYYCARYRYGDTPYIYFDYWGQGTLVTVSS chain 2: DIQMTQSPSSLSASVGDRVTITCGASENIYGALNWYQQKPGKAPKLLIYGATNLADGVPSRFSGSGSGTDFTLTISSLQPEDFATYYCQNVLNTPLTFGQGTKVEIK |
| 96.3 nM | unnamed (protein) chain 1: QVQLVQSGAEVKKPGASVKVSCKASGYIFSNYWIQWVRQAPGQGLEWMGEILPGSGSTEYTENFKDRVTMTRDTSTSTVYMELSSLRSEDTAVYYCARYYYGDTPFIYFDYWGQGTLVTVSS chain 2: DIQMTQSPSSLSASVGDRVTITCGASENIYGALNWYQQKPGKAPKLLIYGATNLADGVPSRFSGSGSGTDFTLTISSLQPEDFATYYCQNVLNTPLTFGQGTKVEIK |
| 937 nM | unnamed (protein) chain 1: QVQLVQSGAEVKKPGASVKVSCKASGYIFSNYWIQWVRQAPGQGLEWMGEILPGSGSTEYTENFKDRVTMTRDTSTSTVYMELSSLRSEDTAVYYCARLRYGDTPFIYFDYWGQGTLVTVSS chain 2: DIQMTQSPSSLSASVGDRVTITCGASENIYGALNWYQQKPGKAPKLLIYGATNLADGVPSRFSGSGSGTDFTLTISSLQPEDFATYYCQNVLNTPLTFGQGTKVEIK |
| 749 nM | unnamed (protein) chain 1: QVQLVQSGAEVKKPGASVKVSCKASGYIFSNYWIQWVRQAPGQGLEWMGEILPGSGSTEYTENFKDRVTMTRDTSTSTVYMELSSLRSEDTAVYYCARLRWGDTPIIYFDYWGQGTLVTVSS chain 2: DIQMTQSPSSLSASVGDRVTITCGASENIYGALNWYQQKPGKAPKLLIYGATNLADGVPSRFSGSGSGTDFTLTISSLQPEDFATYYCQNVLNTPLTFGQGTKVEIK |

biological target: ACVR2B, Q13705; assay: Kd (SPR)
Sequence (Q13705 whole entry, looked up): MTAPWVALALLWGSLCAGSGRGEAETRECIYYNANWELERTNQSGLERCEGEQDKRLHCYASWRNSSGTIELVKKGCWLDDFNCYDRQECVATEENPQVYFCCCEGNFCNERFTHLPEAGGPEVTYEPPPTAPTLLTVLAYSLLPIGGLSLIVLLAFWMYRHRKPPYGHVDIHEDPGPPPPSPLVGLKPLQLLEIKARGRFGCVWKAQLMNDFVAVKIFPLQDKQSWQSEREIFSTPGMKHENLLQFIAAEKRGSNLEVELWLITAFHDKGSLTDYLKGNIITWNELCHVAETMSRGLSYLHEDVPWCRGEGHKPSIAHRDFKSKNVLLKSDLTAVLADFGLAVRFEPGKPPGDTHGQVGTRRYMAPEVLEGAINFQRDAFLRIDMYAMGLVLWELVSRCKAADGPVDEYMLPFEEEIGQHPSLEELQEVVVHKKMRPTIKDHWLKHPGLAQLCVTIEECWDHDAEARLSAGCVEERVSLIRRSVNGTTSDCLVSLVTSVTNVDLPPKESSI

| Kd | Binder |
| --- | --- |
| 10.3 nM | unnamed (protein) chain 1: QVQLVQSGAEVKKPGASVKVSCKASGYTFTSSYINWVRQAPGQGLEWMGTINPVTGNTSYAQKFQGRVTMTRDTSISTAYMELSRLRSDDTAVYYCARGGYFDYWGQGTLVTVSS chain 2: QSALTQPASVSGSPGQSITISCTGTSSDVGSYNYVNWYQQHPGKAPKLMIYGVSKRPSGVSNRFSGSKSGNTASLTISGLQAEDEADYYCGTFAGGSYYGVFGGGTKLTVL |
| 0.581 nM | unnamed (protein) chain 1: QVQLVQSGAEVKKPGASVKVSCKASGYTFTSSGINWVRQAPGQGLEWMGTINPVTGNTSYAQKFQGRVTMTRDTSISTAYMELSRLRSDDTAVYYCARGNYMDYWGQGTLVTVSS chain 2: QSALTQPASVSGSPGQSITISCTGTSSDVGSYNYVNWYQQHPGKAPKLMIYGVSKRPSGVSNRFSGSKSGNTASLTISGLQAEDEADYYCGTFAGGSYYGVFGGGTKLTVL |
| 7.87 nM | unnamed (protein) chain 1: QVQLVQSGAEVKKPGASVKVSCKASGYTFTSTYINWVRQAPGQGLEWMGTINPVTGNTSYAQKFQGRVTMTRDTSISTAYMELSRLRSDDTAVYYCARGGYFDYWGQGTLVTVSS chain 2: QSALTQPASVSGSPGQSITISCTGTSSDVGSYNYVNWYQQHPGKAPKLMIYGVSKRPSGVSNRFSGSKSGNTASLTISGLQAEDEADYYCGTFAGGSYYGVFGGGTKLTVL |
